To fix the notation:
B1: HLA-G-0037 (antibody, V domains shown)
VH: QVQLKESGPGLVQPSQTLSLTCSVSGFSLTTYSVSWVRQPPGKGLEWIGAIWSGGSTDYNSALKSRLRISRDTSKSQVLLKMNSLQTEDRAMYFCVRMNNKFGYWYFDLWGPGTMVTVSS
VL: DTVLTQSPTLAVSPGEKITISCRASETVSTMLHWYQQKPGQQPKLLISLASHLESGVPARFTGSGSGTDFTLTIDPVEADDTATYYCQQTWNDPLTFGSGTKLEIK
B2: HLA-G-0033 (antibody, V domains shown)
VH: EVQLVETGGGLVQSGRSLKLSCVASGFTFNDYWMTWTRQAPGKGLEWVASITNSGGRTYYLDSVRGRFTISRDDAQNTLYLQMNSLRSEDTATYYCTKERIYLTAYWFFDFWGPGTMVTVSS
VL: DTILTQSPALAVSPGERVTISCRASESVSTLIHWYQQKPGQRPKLLIYLASHLESGVPARFSGSGSGTDFTLTIDPVEADDTATYYCQQSWNEPRTFGGGTKLELK
B3: HLA-G-0032 (antibody, V domains shown)
VH: QVQLQQSGAELVKPGSSVKISCKASGYSFPSYDMHWIKQQPGNGLEWIGWIYPGNGNTKYNQKFNGKASLTADKSSSTAYMQLSSLTSEDSAVYFCAKPTVATRYNWFAYWGQGTLVTVSS
VL: QIVLTQSPALMSASPGEKVTMTCSASSSVNYMHWYQQKPRSSPKPWIYLTSNLASGVPARFSGSGSGTSYSLTISTMEAEDAATYYCQQWSSNLPITFGSGTKLEIK

A value given as a limit tells only on which side of the number the result lay.

In one test the target is T1, recombinant soluble human HLA-G β2M MHC class I complex, monomer (human).
T1 construct: His tagged; also called HLA-G-0003
Description: ELISA, biotinylated wt HLA-G monomer on streptavidin plate. The protocol:
Streptavidin coated plates (Nunc, MicroCoat #11974998001) were coated with 25 μl/well biotinylated human wt HLA-G at a concentration of 250 ng/ml and incubated at 4° C. overnight. After washing (3×90 μl/well with PBST-buffer) 25 μl anti-HLA-G samples (1:3 dilution in OSEP buffer) or reference antibody (G233, Thermo/Pierce #MA1-19449, 500 ng/ml) were added and incubated 1 h at RT. After washing (3×90 μl/well with PBST-buffer) 25 μl/well goat-anti-mouse H+L-POD (Biorad #170-6561, 1:2000 in OSEP) or donkey-anti-rabbit IgG POD (GE #NA9340V, 1:5000 in OSE) was added and incubated at RT for 1 h on shaker. For detection of rat IgGs a mixture of goat-anti-rat IgG1-POD (Bethyl #A110-106P), goat-anti-rat IgG2a-POD (Bethyl #A110-109P) and goat-anti-rat IgG2b-POD (Bethyl #A110-111P) 1:10000 in OSEP was added and incubated at RT for 1 h on shaker. After washing (6×90 μl/well with PBST-buffer) 25 μl/well TMB substrate (Roche, 11835033001) was added and incubated until OD 2-3. Measurement took place on a Tecan Safire 2 instrument at 370/492 nm.
(§1) The above table summarizes the binding of different rat anti-human HLA-G monoclonal antibodies, derived from wt protein IMS. Shown are the relative EC50 values [ng/ml] of the respective binding to rec. wt monomeric, dimeric and trimeric HLA-G proteins as assessed by ELISA. The ELISA was set up by coating the biotinylated wt HLA-G antigen to strepdavidin plates. After incubation and washing steps, the respective antibodies were bound in a concentration range from 10-0 μg in 1:2 dilution steps. Detection of bound antibodies was carried out by anti-Fc-antibody-POD conjugates. EC50 values were determined from the resulting binding curves at the antibody concentrations generating the half-maximal signal. In case of the non-biotinylated HLA-G dimer and trimer antigens, immobilization was carried out by random coating on assay plates.
On the technique in general: ELISA stands for enzyme-linked immunosorbent assay.
Broadly, the EC50 is the concentration giving half of the maximal effect. As for B1, the EC50 turned out to be 4.95 nM.

As to B2, the EC50 came out at 4.94 nM.

As for B3, the EC50 came to 3.59 nM.

The next test addresses T2, recombinant soluble human HLA-G β2M MHC class I complex, trimer (human).
T2 construct: also called HLA-G Trimer; fraction A8
The test is described as follows: competition ELISA, immobilised HLA-G trimer, antibody titrated, competitor c-myc ILT4. The protocol: (§2) The ELISA was set up by coating the biotinylated antigen wt HLA-G to strepdavidin plates. After incubation and washing steps, the respective antibodies were bound in a concentration range from 8-0 μg in 1:3 dilution steps. C-myc tagged ILT-2 or -4 receptor was added to the HLA-G-antibody complexes. After incubation and washing steps, detection of bound receptor was carried out by anti-cmyc-antibody-POD conjugates. IC50 values were determined from the resulting inhibition curves at the antibody concentrations generating the half-maximal inhibition. In case of the non-biotinylated HLA-G dimer and trimer antigens, immobilization was carried out by random coating on assay plates.
As a reminder, the IC50 is the concentration needed to halve the response being measured. B1: the IC50 was more than 200 nM.

Take B2: the half-maximal inhibitory concentration (IC50) came out at 61.5 nM.

With B3, the IC50 amounted to 71.3 nM.

The next test addresses T3, recombinant soluble human HLA-G β2M MHC class I complex, dimer (human).
T3 construct: also called HLA-G Dimer; fraction A9
Description: ELISA, HLA-G dimer coated on plate. The protocol:
as §1
For B1, the EC50 came to 2.01 nM.

On to B2, for which the EC50 was determined as 1.98 nM.

For B3, the EC50 amounted to 1.36 nM.

The next test deals with T1, recombinant soluble human HLA-G β2M MHC …. The test is described as follows: competition ELISA, immobilised HLA-G monomer, antibody titrated, competitor c-myc ILT2. As to the method: Streptavidin coated plates (Nunc, MicroCoat #11974998001) were coated with 25 μl/well biotinylated human wt HLA-G at a concentration of 500 ng/ml and incubated at 4° C. overnight. After washing (3×90 μl/well with PB ST-buffer) 25 μl anti-HLA-G samples were added in decreasing concentrations starting at 8 μg/ml, then diluted in 1:3 steps and incubated 1 h at RT. After washing (3×90 μl/well with PBST-buffer) 25 μl/well c-myc-tagged recombinant ILT-2 receptor was added at a concentration of 150 ng/ml and incubated for 1 h at room temperature. After washing (3×90 μl/well with PBST-buffer) 25 μl/well goat-anti-c-myc-POD (Bethyl #A190-104P 1:7000 in OSE) was added and incubated at RT for 1 h on a shaker. After washing (6×90 μl/well with PBST-buffer), 25 μl/well TMB substrate (Roche, 11835033001) was added and incubated until OD 2-3. Measurement took place on a Tecan Safire 2 instrument at 370/492 nm
as §2
As to B1, the IC50 was determined as 13 nM.

With B2, the 50% inhibitory concentration (IC50) was found to be 8 nM.

Take B3: the IC50 came out at 8.4 nM.

The next test deals with T2, recombinant soluble human HLA-G β2M MHC …. Description: blocking ELISA, Fc tagged ILT2 coated, 100 nM antibody, soluble HLA-G trimer. As to the method:
The ELISA was set up by coating the Fc tagged ILT2 and ILT4 respectively to Maxisorp microtiter plates. After incubation and washing steps, the respective antibodies were added at a concentration of 100nM. Soluble His tagged monomeric, dimeric or trimeric HLA-G was added to the wells. After incubation and washing steps, detection of bound receptor was carried out by anti-His-antibody-POD conjugates.
As to B1, the “% inh. ILT2” value is 93%.

B2: the “% inh. ILT2” value came to 93%.

As for B3, the “% inh. ILT2” value came to 93%.

Values taken from US20200102389A1 (Hoffmann-La Roche, published 2020).
